In patent CN115073593A (SHANGHAI JUNSHI BIOSCIENCES CO LTD; JUNMENG BIOSCIENCES CO …, dated 2022):

B1: JS016-40 (antibody, V domains shown)
VH: EVQLVESGGGLVQPGGSLRLSCAASGFTVGWNYMSWVRQAPGKGLEWVSVIYPGGTTFYADSVKGRFTISRDNSMNTLFLQMNSLRAEDTAVYYCARVLPMYGDYLDYWGQGTLVTVSS
VL: DIVMTQSPSSLSASVGDRVTITCRASQNIERYLNWYQQKPGKAPKLLIYAASSLQSGVPSRFSGSGSGTDFTLTISSLQPEDFATYYCQQSASSTPEYTFGQGTKLEIKR
B2: JS016-41-YTE (antibody, V domains shown)
VH: EVQLVESGGGLVQPGGSLRLSCAASGFVVQANYMSWVRQAPGKGLEWVSVIYPGGSTFYADSVKGRFTISRDNSMNTLFLQMNSLRAEDTAVYYCARVLPMYGDYLDYWGQGTLVTVSS
VL: DIVMTQSPSSLSASVGDRVTITCRASQNIERYLNWYQQKPGKAPKLLIYAASSLQSGVPSRFSGSGSGTDFTLTISSLQPEDFATYYCQQSASSTPEYTFGQGTKLEIKR
B3: JS016-77-YTE (antibody, V domains shown)
VH: EVQLVESGGGLVQPGGSLRLSCAASGFVVQANYMSWVRQAPGKGLEWVSVIYPGGSTFYADSVKGRFTISRDNSMNTLFLQMNSLRAEDTAVYYCARVLPMYGDYLDYWGQGTLVTVSS
VL: DIVMTQSPSSLSASVGDRVTITCRASQNILPYLNWYQQKPGKAPKLLIYAASSLQSGVPSRFSGSGSGTDFTLTISSLQPEDFATYYCQQSSSAVPEYTFGQGTKLEIKR

What follows are binders tested against SARS-CoV-2 omicron突变株假病毒 (SARS-CoV-2 omicron variant) (assay: cell-based or functional assay).
For B1, the “IC50(ng/ml), pseudovirus neutralisation, luciferase reporter” value (shortened to “IC50(ng/ml), pseudovirus neutralisation”) was 24.6 ng/mL. In the case of B2, the “IC50(ng/ml), pseudovirus neutralisation” value is reported as 17.6 ng/mL. In the case of B3, the “IC50(ng/ml), pseudovirus neutralisation” value is reported as 776 ng/mL.
